Publication PMC10192343, “Structural and functional analyses of the echinomycin resistance conferring protein Ecm16 from Streptomyces lasalocidi” (Scientific Reports, 2023)
Marks after values point to notes of the source that are not given here.

Tests used:
[1] = biological target: Ecm16* (Streptomyces lasalocidi (insertion domain from Streptomyces peucetius DrrC)) (UniProt Q0X0A9); experiment: fluorescence polarization; conditions: apparent KD, Hill fit, FP: 50 mM HEPES pH 7.5, 50 mM NaCl, 50 nM DNA, 4-512 nM protein, temperature not stated, EMSA: same buffer plus 0.1 mg/ml BSA
UvrA = biological target: T1, UvrA (Thermotoga maritima, UniProt Q9WYV0); experiment: ATPase, EnzChek phosphate assay (MESG/PNP, […] nm); format: biochemical; conditions: 1 µM echinomycin-DNA or DNA, 50 mM HEPES pH 7.5, 50 mM NaCl, 10 mM MgCl2, 22 °C
T1 construct: pET28a(+) construct, E. coli Rosetta (DE3) pLysS, His-Trap purified, no tag cleavage mentioned
T1 sequence (Q9WYV0 1-916): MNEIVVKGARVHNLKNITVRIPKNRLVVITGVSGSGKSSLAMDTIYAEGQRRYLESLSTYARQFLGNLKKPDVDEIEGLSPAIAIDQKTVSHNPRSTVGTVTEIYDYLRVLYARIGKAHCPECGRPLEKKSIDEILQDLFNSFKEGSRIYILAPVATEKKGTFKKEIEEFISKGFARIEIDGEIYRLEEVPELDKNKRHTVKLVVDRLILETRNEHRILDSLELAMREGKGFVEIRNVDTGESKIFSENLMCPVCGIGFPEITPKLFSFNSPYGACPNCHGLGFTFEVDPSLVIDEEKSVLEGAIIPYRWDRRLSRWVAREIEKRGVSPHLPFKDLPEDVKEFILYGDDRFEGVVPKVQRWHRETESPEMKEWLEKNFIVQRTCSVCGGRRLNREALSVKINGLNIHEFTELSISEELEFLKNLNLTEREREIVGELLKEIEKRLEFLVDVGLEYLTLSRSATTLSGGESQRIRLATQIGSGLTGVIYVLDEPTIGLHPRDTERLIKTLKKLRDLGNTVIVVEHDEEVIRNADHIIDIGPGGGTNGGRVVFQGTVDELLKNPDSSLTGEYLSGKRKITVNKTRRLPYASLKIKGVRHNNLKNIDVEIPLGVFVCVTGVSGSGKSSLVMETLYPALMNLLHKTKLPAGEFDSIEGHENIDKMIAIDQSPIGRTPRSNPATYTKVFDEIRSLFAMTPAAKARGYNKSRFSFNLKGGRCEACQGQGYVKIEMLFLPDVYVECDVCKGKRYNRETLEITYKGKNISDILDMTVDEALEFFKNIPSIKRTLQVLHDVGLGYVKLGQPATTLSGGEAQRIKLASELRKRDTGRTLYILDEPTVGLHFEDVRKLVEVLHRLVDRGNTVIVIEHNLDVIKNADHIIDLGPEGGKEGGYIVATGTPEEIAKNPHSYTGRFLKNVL

Ecm16 [2] = biological target: Ecm16 (Streptomyces lasalocidi, UniProt Q0X0A9); conditions: 1 µM echinomycin-DNA or DNA, 50 mM HEPES pH 7.5, 50 mM NaCl, 10 mM MgCl2, 22 °C
Ecm16 [3] = biological target: T2, Ecm16 (Streptomyces lasalocidi, UniProt Q0X0A9 1-792); experiment: fluorescence polarization; echinomycin-bound DNA; apparent KD, Hill fit; FP: 50 mM HEPES pH 7.5, 50 mM NaCl, 50 nM DNA, 4-512 nM protein, temperature not stated; EMSA: same buffer plus 0.1 mg/ml BSA, 50 nM DNA, echinomycin:DNA 1.1:1, 15 min at room temperature, 6% native gel at 4 °C; conditions: protein: recombinant; tags: His (pET28a, Ni-NTA); chain copies: 2; label: 5'-FAM on both strands; blunt; self-complementary
T2 sequence: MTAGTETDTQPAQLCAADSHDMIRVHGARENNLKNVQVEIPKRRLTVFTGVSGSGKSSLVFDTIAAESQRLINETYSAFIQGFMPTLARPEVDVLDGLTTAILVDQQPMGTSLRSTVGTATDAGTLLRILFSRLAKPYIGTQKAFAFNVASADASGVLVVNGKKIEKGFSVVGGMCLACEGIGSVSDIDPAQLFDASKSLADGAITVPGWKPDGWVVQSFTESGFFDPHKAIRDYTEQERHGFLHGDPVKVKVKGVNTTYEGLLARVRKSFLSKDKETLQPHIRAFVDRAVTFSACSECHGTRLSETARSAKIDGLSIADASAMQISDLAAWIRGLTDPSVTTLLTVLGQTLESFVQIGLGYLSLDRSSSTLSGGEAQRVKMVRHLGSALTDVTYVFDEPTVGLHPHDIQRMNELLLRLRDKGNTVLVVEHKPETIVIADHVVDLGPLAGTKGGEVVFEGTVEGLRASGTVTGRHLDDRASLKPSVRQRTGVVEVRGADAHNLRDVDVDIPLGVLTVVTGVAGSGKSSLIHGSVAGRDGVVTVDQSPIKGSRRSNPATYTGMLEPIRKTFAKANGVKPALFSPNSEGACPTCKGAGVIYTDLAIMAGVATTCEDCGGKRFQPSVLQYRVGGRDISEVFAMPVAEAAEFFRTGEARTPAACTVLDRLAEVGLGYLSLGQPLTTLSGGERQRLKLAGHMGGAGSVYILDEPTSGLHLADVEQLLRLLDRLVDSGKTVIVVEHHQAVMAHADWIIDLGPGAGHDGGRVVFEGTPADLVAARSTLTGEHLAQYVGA

Ecm16 [4] = biological target: T2, Ecm16; experiment: fluorescence polarization; no echinomycin; apparent KD, Hill fit; FP: 50 mM HEPES pH 7.5, 50 mM NaCl, 50 nM DNA, 4-512 nM protein, temperature not stated; EMSA: same buffer plus 0.1 mg/ml BSA, 50 nM DNA, echinomycin:DNA 1.1:1, 15 min at room temperature, 6% native gel at 4 °C; conditions: protein: recombinant; tags: His (pET28a, Ni-NTA); chain copies: 2; label: 5'-FAM on both strands; blunt; self-complementary
[5] = biological target: the molecule itself; experiment: crystal structure; hanging drop vapour diffusion at 18 °C; 8 mg/ml Ecm16, 10 mM MgCl2, 1 mM ADP mixed with 0.1 M MES pH 6.5, 0.2 M sodium thiocyanate, 12% PEG 20K; 2.0 Å; homodimer in the model

AGTGATCAGTGGTTACGTAACCACTGATCACT (double strand) [FAM 32-bp DNA]
Kd ([1]; echinomycin-bound DNA): 37.7 nM | Kd ([1]; no echinomycin): 90.8 nM

Nc1ncnc2c1ncn2[C@@H]1O[C@H](COP(=O)(O)OP(=O)(O)OP(=O)(O)O)[C@@H](O)[C@H]1O [ATP]
ATPase, EnzChek phosphate assay (MESG/PNP, 360 nm) (UvrA): Ecm16* and UvrA showed a similar basal ATPase activity for all four DNA substrates | ATPase, EnzChek phosphate assay (MESG/PNP, 360 nm) (Ecm16 [2]): we measured the ATP hydrolysis activity of Ecm16, Ecm16-ΔID, Ecm16*, and UvrA

B1: FAM 32-bp DNA (dsDNA)
DNA 1: AGTGATCAGTGGTTACGTAACCACTGATCACT
DNA 2: AGTGATCAGTGGTTACGTAACCACTGATCACT
Kd (Ecm16 [3]): 11.8 ± 1.7 nM | Kd (Ecm16 [4]): 60.2 ± 2.1 nM

B2: Ecm16 from Streptomyces lasalocidi (natural protein)
chain: MTAGTETDTQPAQLCAADSHDMIRVHGARENNLKNVQVEIPKRRLTVFTGVSGSGKSSLVFDTIAAESQRLINETYSAFIQGFMPTLARPEVDVLDGLTTAILVDQQPMGTSLRSTVGTATDAGTLLRILFSRLAKPYIGTQKAFAFNVASADASGVLVVNGKKIEKGFSVVGGMCLACEGIGSVSDIDPAQLFDASKSLADGAITVPGWKPDGWVVQSFTESGFFDPHKAIRDYTEQERHGFLHGDPVKVKVKGVNTTYEGLLARVRKSFLSKDKETLQPHIRAFVDRAVTFSACSECHGTRLSETARSAKIDGLSIADASAMQISDLAAWIRGLTDPSVTTLLTVLGQTLESFVQIGLGYLSLDRSSSTLSGGEAQRVKMVRHLGSALTDVTYVFDEPTVGLHPHDIQRMNELLLRLRDKGNTVLVVEHKPETIVIADHVVDLGPLAGTKGGEVVFEGTVEGLRASGTVTGRHLDDRASLKPSVRQRTGVVEVRGADAHNLRDVDVDIPLGVLTVVTGVAGSGKSSLIHGSVAGRDGVVTVDQSPIKGSRRSNPATYTGMLEPIRKTFAKANGVKPALFSPNSEGACPTCKGAGVIYTDLAIMAGVATTCEDCGGKRFQPSVLQYRVGGRDISEVFAMPVAEAAEFFRTGEARTPAACTVLDRLAEVGLGYLSLGQPLTTLSGGERQRLKLAGHMGGAGSVYILDEPTSGLHLADVEQLLRLLDRLVDSGKTVIVVEHHQAVMAHADWIIDLGPGAGHDGGRVVFEGTPADLVAARSTLTGEHLAQYVGA
notes: Ecm16, UvrA-like self-resistance protein of the echinomycin biosynthetic gene cluster, Streptomyces lasalocidi (formerly S. lasaliensis); codon-optimised gene in pET28a(+) between NdeI and EcoRI; cloning by NdeI into pET28a(+) would put a His tag on the N-terminus (surmised); also called WT Ecm16; echinomycin resistance conferring protein Ecm16; source: E. coli BL21 (DE3), purified (Ni-NTA, …)
stoichiometry N [5]: 2
